Assay [1] addresses T1, Human ROBO2 Ig1-Ig2-His (human, UniProt Q9HCK4 31-220).
T1 construct: the His tag is named only in the SPR paragraphs; the Octet and ELISA paragraphs print 'ROBO2 Ig1-Ig2' without a tag; also called ROBO2 Ig1-2; Human ROBO2 Ig 1,2
T1 sequence: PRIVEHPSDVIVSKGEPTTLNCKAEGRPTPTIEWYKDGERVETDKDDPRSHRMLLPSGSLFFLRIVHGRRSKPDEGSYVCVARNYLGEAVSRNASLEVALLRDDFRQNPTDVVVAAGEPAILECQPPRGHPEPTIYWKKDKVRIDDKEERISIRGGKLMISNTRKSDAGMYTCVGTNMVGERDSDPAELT
Description: Octet method and SPR method.

For assay [2], the target named is T2, Terbium (Tb) labeled-SNAP tagged ROBO2 expressed on HEK293 cells (Homo sapiens (Human), UniProt Q9HCK4 22-1378, terbium label on the SNAP tag).
T2 construct: also called Tb-labeled ROBO2 cells; ROBO2 expressing cells; not shown: SNAP tag
T2 sequence: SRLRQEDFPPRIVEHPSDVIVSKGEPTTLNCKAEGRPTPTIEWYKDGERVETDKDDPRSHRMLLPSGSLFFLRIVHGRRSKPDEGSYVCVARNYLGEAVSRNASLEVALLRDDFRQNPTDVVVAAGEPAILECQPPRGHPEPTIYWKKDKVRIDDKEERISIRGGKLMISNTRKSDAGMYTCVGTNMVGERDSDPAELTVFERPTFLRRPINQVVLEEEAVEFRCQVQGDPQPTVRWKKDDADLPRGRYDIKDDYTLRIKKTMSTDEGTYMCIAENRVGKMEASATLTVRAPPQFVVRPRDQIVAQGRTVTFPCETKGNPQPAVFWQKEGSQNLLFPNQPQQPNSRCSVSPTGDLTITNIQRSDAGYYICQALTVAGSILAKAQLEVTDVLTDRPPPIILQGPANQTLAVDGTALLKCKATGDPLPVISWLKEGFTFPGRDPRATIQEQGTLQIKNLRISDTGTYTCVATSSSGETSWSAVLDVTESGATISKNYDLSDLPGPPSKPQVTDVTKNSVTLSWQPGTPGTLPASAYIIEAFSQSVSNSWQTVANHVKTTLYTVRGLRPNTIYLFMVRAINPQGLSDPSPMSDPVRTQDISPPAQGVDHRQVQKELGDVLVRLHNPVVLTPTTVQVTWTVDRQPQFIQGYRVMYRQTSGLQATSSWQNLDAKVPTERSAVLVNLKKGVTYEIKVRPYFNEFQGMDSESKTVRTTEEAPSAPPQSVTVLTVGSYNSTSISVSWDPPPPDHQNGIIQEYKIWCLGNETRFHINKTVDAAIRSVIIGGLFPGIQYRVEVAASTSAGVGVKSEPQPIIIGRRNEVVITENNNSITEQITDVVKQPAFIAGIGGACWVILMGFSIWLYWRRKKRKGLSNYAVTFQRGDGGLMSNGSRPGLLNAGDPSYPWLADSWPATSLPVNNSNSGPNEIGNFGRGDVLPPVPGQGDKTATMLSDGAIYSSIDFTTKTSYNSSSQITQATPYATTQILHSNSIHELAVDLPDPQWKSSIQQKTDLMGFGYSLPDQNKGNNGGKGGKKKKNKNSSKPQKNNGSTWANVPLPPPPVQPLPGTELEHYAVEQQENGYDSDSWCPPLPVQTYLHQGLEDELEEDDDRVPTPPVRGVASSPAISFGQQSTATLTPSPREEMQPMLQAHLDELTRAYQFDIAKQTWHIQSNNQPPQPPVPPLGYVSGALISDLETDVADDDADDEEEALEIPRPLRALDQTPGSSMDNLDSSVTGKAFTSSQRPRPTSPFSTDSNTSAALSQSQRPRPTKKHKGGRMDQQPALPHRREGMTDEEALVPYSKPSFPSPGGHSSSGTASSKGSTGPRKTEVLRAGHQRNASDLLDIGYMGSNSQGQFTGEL
Description: HTRF competition on ROBO2 expressing cells; blocked ligand SLIT2-N; 11 points up to 10^2 nM, another dilution series than that of Table 2.

In assay [3] the target is T1, Human ROBO2 Ig1-Ig2-His. Nature of the assay: SPR, Biacore T200, Abcs35 immobilized on CM5 chip, ROBO2 Ig1-Ig2-His as analyte. As for the experimental part:
[…] Association and dissociation were followed over time.
Based upon several criteria, Abcs25 and Abcs35 were selected for further characterization. Using flow cytometry, improvement in the binding EC₅₀ to human ROBO2 relative to the parental 93H2 was evaluated. Starting at 6.7 nM, 11-point, 3-fold dilution series were made for each antibody and used to stain HEK293 overexpressing human ROBO2 as described above for the ROBO2 fold selectivity (Example 2). […] In addition to measuring improved binding to human ROBO2, it was important to ensure that high affinity binding to both cynomolgus monkey ROBO2 and rat ROBO2 was maintained. Using HEK293 cells overexpressing either cynomolgus monkey ROBO2 or rat ROBO2, the relative dose-dependent binding of 93H2, Abcs25 and Abcs35 was evaluated as described above. High affinity binding to both cynomolgus monkey and rat ROBO2 was maintained in Abcs25 and Abcs35 (Table 4). […] Briefly, Abcs35 was immobilized to 300 resonance units (RU) on a CM5 chip. Association of ROBO2 Ig1-Ig2-His (ROBO2) was measured over 5 minutes and dissociation was followed for a period of 10 minutes.

The results in this text go back to patent US20200157212A1 (Pfizer, published 2020).

B1: Abcs35 (antibody, human IgG1, kappa)
heavy: EVQLVQSGAEVKKPGASVKVSCKASGYTFTGYYMHWVRQAPGQGLEWMGWINPKNGDTEFPQKFQGRVTMTRDTSITTAYMDLSRLRSDDTAVYYCARESGDDAFDIWGQGTMVTVSSASTKGPSVFPLAPSSKSTSGGTAALGCLVKDYFPEPVTVSWNSGALTSGVHTFPAVLQSSGLYSLSSVVTVPSSSLGTQTYICNVNHKPSNTKVDKKVEPKSCDKTHTCPPCPAPEAAGAPSVFLFPPKPKDTLMISRTPEVTCVVVDVSHEDPEVKFNWYVDGVEVHNAKTKPREEQYNSTYRVVSVLTVLHQDWLNGKEYKCKVSNKALPAPIEKTISKAKGQPREPQVYTLPPSREEMTKNQVSLTCLVKGFYPSDIAVEWESNGQPENNYKTTPPVLDSDGSFFLYSKLTVDKSRWQQGNVFSCSVMHEALHNHYTQKSLSLSPGK
light: DIVMTQSPSSLSASVGDRVTITCRASQSISSYLNWYQQKPGKAPKLLIYAASSLQSGVPSRFSGSGSGTDFTLTISSLQPEDFATYYCQQSVGLFFGGGTKVEIKRTVAAPSVFIFPPSDEQLKSGTASVVCLLNNFYPREAKVQWKVDNALQSGNSQESVTEQDSKDSTYSLSSTLTLSKADYEKHKVYACEVTHQGLSSPVTKSFNRGEC
notes: fully human IgG1; VH of Ab96 with VL of Ab123
With B1, the results for the Kd with Human ROBO2 Ig1-Ig2-His [1] and with Human ROBO2 Ig1-Ig2-His [3] were 0.279 nM and 0.268 nM, respectively. Moreover, the “IC50 (read off the curve)” value in assay [2] was around 0.05 nM.
